Experiment [1] concerns the target TR4-DR1 (Homo sapiens, UniProt P49116). Conditions: increasing amounts of in vitro translated AR (1, 2, 4 μl).
Description: EMSA was performed as described previously. […] Briefly, the reaction was performed by incubating the 32P-end labeled DR1 probe with in vitro translated TR4 (1 ml) with or without an increasing amount of AR (1, 2, 4 ml). The EMSA incubation buffer is 10 mM HEPES, pH 7.9, 2% (v/v) glycerol, 100 mM KCl, 1 mM EDTA, 5 mM MgCl, and 1 mM DTT. For the antibody supershifted analysis, 1 ml of monoclonal anti-TR4 antibody (#15) was added to the reaction. […] The radioactive gel was analyzed by autoradiography.
One μl of in vitro translated TR4 protein was incubated with increasing amounts of in vitro translated AR (1 μl, 2 μl, and 4 μl) in EMSA reaction buffer (10 mM HEPES pH 7.9, 2% (v/v) glycerol, 100 mM KCl, 1 mM EDTA, 5 mM MgCl2, and 1 mM DTT) for 15 min. 32P-end labeled DR1 was added into the protein mixture and incubated for 15 min before loading. For the antibody supershift assay, 1 μl of monoclonal anti-TR4 antibody was added to the reaction and applied to a 5% native polyacrylamide gel. The radioactive gel was analyzed by autoradiography.
Experiment [2] concerns the target T1, interaction between the GAL4-ER and VPI6-TR2 (Homo sapiens, UniProt P03372, G400V).
T1 construct: GAL4-DBD fused with ER-LBD (GAL4-ER, aa 282 to 595); expressed in transfected cells; host or cells: H1299, PC-3
T1 sequence (P03372 282-595 G400V): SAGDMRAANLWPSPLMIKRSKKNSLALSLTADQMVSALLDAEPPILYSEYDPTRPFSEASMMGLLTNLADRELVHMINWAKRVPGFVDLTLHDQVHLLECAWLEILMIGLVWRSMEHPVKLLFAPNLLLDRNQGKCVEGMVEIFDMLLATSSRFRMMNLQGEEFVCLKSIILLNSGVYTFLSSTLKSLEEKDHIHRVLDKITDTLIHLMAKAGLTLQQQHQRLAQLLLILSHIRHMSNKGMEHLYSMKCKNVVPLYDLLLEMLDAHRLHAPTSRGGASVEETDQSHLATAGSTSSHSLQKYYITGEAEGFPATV
T1 sequence (P13056 1-603 partner): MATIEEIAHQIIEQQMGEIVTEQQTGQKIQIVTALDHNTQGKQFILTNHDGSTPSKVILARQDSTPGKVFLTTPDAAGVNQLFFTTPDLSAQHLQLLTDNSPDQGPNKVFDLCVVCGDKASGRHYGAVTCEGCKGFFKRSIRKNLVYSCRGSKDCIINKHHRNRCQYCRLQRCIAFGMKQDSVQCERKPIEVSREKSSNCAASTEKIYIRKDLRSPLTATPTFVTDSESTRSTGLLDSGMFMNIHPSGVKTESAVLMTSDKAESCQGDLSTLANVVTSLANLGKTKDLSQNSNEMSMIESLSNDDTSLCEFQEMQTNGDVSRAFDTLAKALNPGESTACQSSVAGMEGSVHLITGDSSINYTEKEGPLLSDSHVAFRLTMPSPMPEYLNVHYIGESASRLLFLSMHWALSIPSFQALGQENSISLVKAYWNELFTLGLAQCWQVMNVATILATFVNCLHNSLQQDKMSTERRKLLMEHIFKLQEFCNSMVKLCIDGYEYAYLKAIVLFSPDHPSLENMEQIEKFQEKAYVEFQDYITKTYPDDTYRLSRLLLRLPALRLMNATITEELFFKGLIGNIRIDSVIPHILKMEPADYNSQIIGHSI
The experiment is described as follows: Mammalian two-hybrid assay GAL4-ER / VP16-TR2. Format: cell-based. Conditions: PC-3 cells; presence of E2; co-transfection of blocker plasmid. The method, then: Transfections were performed using the calcium-phosphate precipitation method described above. […] 3 μg of a VPI6-TR2 expression plasmid and 3 μg pG5-CAT reporter plasmid. CAT assays were performed as described above.
Cells were also transfected with a β-galactosidase expression plasmid, pCMV-β-gal, as an internal control for transfection efficiency.

The subject of experiment [3] is pS2. The experiment is described as follows: Northern blot of pS2 in MCF-7-TR4 cells. Type of experiment: cell-based. The following applies: 2 μg/ml Dox, E2.
Experiment [4] concerns MCF-7-TR4 cells. Description: MCF-7 cells growth assay (cell counting). Type of experiment: cell-based. The following applies: MCF-7-TR4 cells (E2 also in MCF-7-pBIG); 10 nM E2; Dox. As to the method: MCF-7-TR4 and MCF-7-pBIG cells, which were deprived of estrogen by culturing in phenol-free DMEM medium supplement with 10% charcol-stripped FBS for 4 days, were plated at 10^4 cells/well into 24-well plate. […] Cells were trypsinized at the specified time points and counted with a hemocytometer to determine cell density per sample.

For experiment [5], the target named is T2, GR (Homo sapiens, UniProt P04150).
T2 construct: expressed in transfected cells; host or cells: H1299, PC-3 (pSG5-GR)
T2 sequence (P04150 1-777): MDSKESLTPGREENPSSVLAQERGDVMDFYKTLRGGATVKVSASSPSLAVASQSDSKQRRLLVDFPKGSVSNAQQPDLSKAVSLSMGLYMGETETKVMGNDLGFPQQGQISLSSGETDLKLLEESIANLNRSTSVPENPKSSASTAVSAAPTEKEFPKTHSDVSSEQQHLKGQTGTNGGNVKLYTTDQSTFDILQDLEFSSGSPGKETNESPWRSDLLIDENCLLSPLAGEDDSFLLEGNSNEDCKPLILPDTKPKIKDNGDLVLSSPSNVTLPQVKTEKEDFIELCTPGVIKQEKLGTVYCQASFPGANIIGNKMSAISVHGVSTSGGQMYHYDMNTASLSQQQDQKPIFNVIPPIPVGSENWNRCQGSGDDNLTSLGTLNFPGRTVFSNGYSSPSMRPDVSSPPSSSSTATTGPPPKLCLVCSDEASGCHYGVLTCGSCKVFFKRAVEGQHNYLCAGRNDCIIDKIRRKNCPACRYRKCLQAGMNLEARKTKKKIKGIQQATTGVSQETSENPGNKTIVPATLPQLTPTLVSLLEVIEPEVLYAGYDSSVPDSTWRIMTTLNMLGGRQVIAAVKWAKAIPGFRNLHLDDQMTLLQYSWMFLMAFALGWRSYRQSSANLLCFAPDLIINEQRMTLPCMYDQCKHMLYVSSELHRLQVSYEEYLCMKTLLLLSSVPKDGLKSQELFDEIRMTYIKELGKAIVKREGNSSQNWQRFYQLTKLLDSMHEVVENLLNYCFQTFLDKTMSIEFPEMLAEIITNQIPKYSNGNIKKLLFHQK
Description: GR-mediated transactivation (MMTV reporter). Format: cell-based. The method, then:
To eliminate the potential artificial effects caused by overexpression of exogenous ER, T47D cells were used as a model to test the TR2 suppression effect on the endogenous ER-mediated transactivation. T47D cells were transfected with 1 μg of ERE-CAT reporter plasmid together with increasing amounts of the TR2 expression plasmid. […] All of the cells also were transfected with a galactosidase expression plasmid, pCMV-β-gal to normalize the transfection efficiency. As expected, the TR2 can still repress the endogenous ER-mediated ERE-CAT activity (FIG. 8B). For a control, the potential suppression effect of the TR2 on other steroid receptors-mediated transactivation was also tested, such as PR or GR. H1299 cells were co-transfected with 1 μg of MMTV-CAT reporter plasmid and 1 μg of PR or GR expression plasmid together with increasing amounts of the TR2 expression vector. […] AU of the cells also were transfected with a β-galactosidase expression plasmid, pCMV-β-gal to normalize the transfection efficiency.
AR is known to be highly involved in prostate cancer progression, and both TR2 and AR are expressed in prostate cancer, therefore the TR2 effect on AR transactivation activity was analyzed.

No end group written: not given here.

Take AR: androgen receptor, SEQ ID NO:31: the “Specific TR4-DR1 band” value in experiment [1] was “decreased”.
For the molecule “ER-#6: interaction blocker, ER fragment aa 312-340, as HA-tagged peptide, expression plasmid or cleaved peptide (ADQMVSALLDAEPPILYSEYDPTRPFSEA; also: HA tag (position not given here); UniProt P03372 312-340, looked up, fragment)”, the “ER-TR2 interaction (GAL4-ER / VP16-TR2, pG5-CAT)” value in experiment [2] is “suppressed”.

B1: TR4: human testicular orphan nuclear receptor 4, SEQ ID NO:16; expressed from plasmid or in vitro translated (protein)
chain: MTSPSPRIQIISTDSAVASPQRIQGSEPASGPLSVFTSLNKEKIVTDQQTGQKIQIVTAVDASGSPKQQFILTSPDGAGTGKVILASPETSSAKQLIFTTSDNLVPGRIQIVTDSASVERLLGKTDVQRPQVVEYCVVCGDKASGRHYGAVSCEGCKGFFKRSVRKNLTYSCRSSQDCIINKHHRNRCQFCRLKKCLEMGMKMESVQSERKPFDVQREKPSNCAASTEKIYIRKDLRSPLIATPTFVADKDGARQTGLLDPGMLVNIQQPLIREDGTVLLATDSKAETSQGALGTLANVVTSLANLSESLNNGDTSEIQPEDQSASEITRAFDTLAKALNTTDSSSSPSLADGIDTSGGGSIHVISRDQSTPIIEVEGPLLSDTHVTFKLTMPSPMPEYLNVHYICESASRLLFLSMHRARSIPAFQGLGQDCNTSLVRACWNELFTLGLAQCAQVMSLSTILAAIVNHLQNSIQEDKLSGDRIKQVMEHIWKLQEFCNSMANWDIDGYEYAYLKAIVLFSPDHPGLTSTSQIEKFQEKAQMELQDYVQKTYSEDTYRLARILVRLPALRLMSSNITEELFFTGLIGNVSIDSIIPYILKMETAEYNGQITGVSL
Consider B1, for which the “Expression of ER endogenous target gene pS2” value in experiment [3] is on record as “repress”. The “Cell growth (cell number)” value in experiment [4] was “repress”.

B2: TR2: human testicular orphan nuclear receptor 2, 603 amino acids (protein, UniProt P13056 1-603, looked up)
chain: T1 sequence (P13056 1-603 partner)
modifications: full-length
notes: human testicular orphan nuclear receptor 2, 603 amino acids
For B2, the “GR-mediated transactivation (MMTV-CAT)” value in experiment [5] (H1299 cells, 10^−8 M glucocorticoid, increasing TR2) is recorded as “little effect”; in experiment [5] (PC-3 cells, 10 nM dexamethasone, pCMV-TR2), “less suppression effect”. In addition, in experiment [5] (T47D cells, Example 2), the “GR-mediated transcription (MMTV-CAT)” value is “marginal effect”.
